assay: soluble on expression in E. coli; label from the status in PepcDB or PDB records

Sequence | soluble on expression in E. coli
MGSDKIHHHHHHMEVFVLGCAGSGKSTFVRSFSEFLQERGYSVKCVNLDPASDPAYRADKNVREFVKTENVMVEYGLGVNGALIKSVEIASEHAEELKAEGDFVLYDTPGQLELFIYSEAGRKFVRELSGSFSCSLFLVDLTTVTDPESLLSAIMQDVIVSLRLSLPTLTAFTKSDVADVDVRSLLGEIKHREGVLAELMEKLVDFIELTTIPYRPIKISNIKKTGYEELFSALYELFCAAET | not soluble
MGSDKIHHHHHHMLVAERQQKIVEIVNMRSSIRVSELSDIFSVTEETIRRDLEKLEKEHKLSRSHGGAVSIQQKESEIHFSEREITNVIEKKAIAHEAAKYVKSGDRIILDASTTAWYMAKILPDIELTVITNSMKAAIELSNKENISVISTGGILLEKSLSFAGPLAERSLETYHVNKTFLSCKGFDVHNGMSDSNEWQALLKKRMIERSDQTILMADSSKWGNREFSHIASLQDVSRLITDSGLDPASVKALEDKKVKVTAVPLSKRG | not soluble
GPGSMSSSDQFLVDELRSRLKRRRADIVRYLDGLFYEDCRRIIECVSELDSDNLFLRNPSSLPDYAQHVTRPMYWELIQRKLQRYEYRAAADFMADMRAVVNNCYLYNGIQAPASKLARAIEVLMEDRFVTELRAAPVQPAEVK | not soluble
MSRIIMLIPTGTSVGLTSVSLGVIRAMERKGVRLSVFKPIAQPRTGGDAPDQTTTIVRANSSTTTAAEPLKMSYVEGLLSSNQKDVLMEEIVANYHANTKDAEVVLVEGLVPTRKHQFAQSLNYEIAKTLNAEIVFVMSQGTDTPEQLKERIELTRNSFGGAKNTNITGVIVNKLNAPVDEQGRTRPDLSEIFDDSSKAKVNNVDPAKLQESSPLPVLGAVPWSFDLIATRAIDMARHLNATIINEGDINTRRVKSVTFCARSIPHMLEHFRAGSLLVTSADRPDVLVAACLAAMNGVEIGALLLTGGYEMDARISKLCERAFATGLPVFMVNTNTWQTSLSLQSFNLEVPVDDHERIEKVQEYVANYINADWIESLTATSERSRRLSPPAFRYQLTELARKAGKRIVLPEGDEPRTVKAAAICAERGIATCVLLGNPAEINRVAASQGVELGAGIEIVDPEVVRESYVGRLVELRKNKGMTETVAREQLEDNVVLGTLMLEQDEVDGLVSGAVHTTANTIRPPLQLIKTAPGSSLVSSVFFMLLPEQVYVYGDCAINPDPTAEQLAEIAIQSADSAAAFGIEPRVAMLSYSTGTSGAGSDVEKVREATRLAQEKRPDLMIDGPLQYDAAVMADVAKSKAPNSPVAGRATVFIFPDLNTGNTTYKAVQRSADLISIGPMLQGMRKPVNDLSRGALVDDIVYTIALTAIQSAQQQ | soluble
MVAPETERIRTQIRVYLLVEDLQRQFAAYLGTPTRARGYPPYEGEHALIVEVSPALAIERVIDLALRAVPGVQPGILYVERQFGVLEIHSASLDEVRRAGEAILAGTGNRAEDQLRPRVLFHDIITDITDQHAVILNRNRQASMILPGQSLLVYEMTPALFAAVAANEAERVAPGLTVVDVQMIGAAGRLYIGGSTDEVTVARDHITTVLSAIEGQEH | not soluble
RYWKPEFHPDNSKSIEEWTDEIHTTLQKIMPEVKSENETAELFLSGGVDSSYILAMSDIEKTGSCGYEEERFDESKLAQQTANILGCKNSRYIITPEEYFASVPYVMYHMEQPTGDASAIVFAIGCKAAAENTNICYSGEGADEFFGGYNIYHKAECYGENLKTFYIGNTNIMNEGEKRKILKKYNPDVLPIEVVKGIYEETEELDTLTNMSNVDIQIWLEGDIYFNIDKMSTAVGLEVRMPLTDTRIFDIASRIPSEYKVKGKENKIAFRTAASKTLPEEIAFRNKLGFIVPIRIWMADDQYNKDIRDKFNSEIADKFFNIDEINEIFNDYISGNSDNWRKIWMIYTFLVWYEIYFVKC | not soluble
MDPEALNLEFYDKNGLDNPIHFRCDPKRIGMTLPSPDFSVDDVLELVGGNRMIEVVQVQNQGSVKMSLQEFINFYKTPQEKREVLYNVLSLEFSQTPLEDLVKSPELVRQIDWVGNQWPDALRQRWISFNGRDKKFYNPHHTFPKVQNYCLMSVANCYTDFHIDFSGTSVWYHVLKGRKVFWLIPPTETNFFIYQEFIKTVNDNAFFGKSVEKCHVAILEPGDTMLIPSGWIHAVYTPDDSLVFGGNFLHSQSCKTQLRVYQVENKLNITRKFRLPYNEELIFYVIADYVKQWTGREYVRPLRIEDAKYDYVGDKWKTAGGHHKKIEYSDYETGVELTNDMIKGDEESTKDEVKVIAMHAENSLFGYPMVSKATFSADTGLEEEADEDEVKYQETKEEMDARRDAEIDELANSNSLIFYKNRTHDFVRNKCVPDHKLPIGHEPPIYFNDDEISRISPRLLDELETLGTYIRRKARVEVAEGICQPASLINTFQTVLKKRRSELTGKKFEFNQIMPRRYTRSTMETGEYDFQPTQEVPQESARRSTRFKVDNFPDELLESEVTDKPIILPQQPSSGPLEYLPAPKDEIKEDINGFEEEFEEEYEGIGQRDDQEEEEYDAEEPEDQEEEEEDEYQAEEYTPTPVTRRSSSRRSGAKNDESEEVSVKKDKKEKMEKVEKDEKRRNSKSKKDKISKEKKKKERERIELESQLDAELRAAHGGGSSKSKKKKPEKPAFVGGLPTSSIQIDPVVSNPYNYDPRMEMMKLGTGQLKSAYRKTKNNVELHIEKNLYKIEPKRGSEEGSQSREQSMEPEHSTPVFTTFDDINEANNDHYDGQKPPTKRAKYEAISVDTYETPSSSRNKEHKEYRPSPNAAPTPSPSHHQKPKLSSPAMVSSTNEYQLRKHMSSERRSSDAGSAMKKGVYMPAMSRQDKMIAEGASAPSSRHSSISSERRPSFIPDFNSSRNSSIDTPYTPTTVTPSRSSWLPNTSSINRHSIEDDSPIDVVNDSLSPINIASSPTYPTAITPPPVTLSDLKKDMSNGRKSHSQHHDDGHKHKIPSKEAIAELKLLVGKLKAINDS | not soluble
MTSSNEKLPKINHDNEVFALLYKILSSEVQTIKGEDNEKVNQLRVDITISEISQLTDKMKKAFLEQPALLEISNEPITVVADMHGQSIHLLRIFLTNEAPPNQKYLFLGDYVDRGSQSVVVMCLLFCMKHRYPQHVFLLRGNHEDVNTTLNYGFYDECLEQWKNDEGEKVWRMFIDTFNCMPLAAVIGGKVFCAHGGISPWLESLEDINSIERPLVVPPYGLACDLLWSDPAQPERNGWGLSHRGISFTYGKSVVEEFCAKNDIALVIRGHQLFKEMYPQGCVLRFGGRLISLFSALNYEGHKNNSSVLKLEFVGQRVKVKQVLYRCRHYAPLRSNEYLGFRDMKSSSGKNEKRKKGRLESLLG | not soluble
MKSKRLSLVLMTAALGLTACATTQSPTGRSQTLLYSSSQMQQMGDASFAEMKKQQKISGNKKLTQYVNCVANRVTAVLPDQTQKWDVVLFDSEQVNAFALPGGHIGVYTGLLKVASTPDQLATVLGHEVAHVLAQHGNEQVSRSQMTGMGMQIADAALGAGGVSNRDLYMSALGLGAQVGVILPFGRAQESEADIMGLELMARAGFDPAQSVVLWQNMSKAGGGKGPELLSTHPSNNNRIAQLEQLQGQMQPLYQSAKANIKNQCAAPKLEHHHHHH | not soluble
MGSSHHHHHHGSLSKQIPLGIYEKALPAGECWLERLQLAKTLGFDFVEMSVDETDERLSRLDWSREQRLALVNAIVETGVRVPSMCLSAHRRFPLGSEDDAVRAQGLEIMRKAIQFAQDVGIRVIQLAGYDVYYQEANNETRRRFRDGLKESVEMASRAQVTLAMEIMDYPLMNSISKALGYAHYLNNPWFQLYPDIGNLSAWDNDVQMELQAGIGHIVAVHVKDTKPGVFKNVPFGEGVVDFERCFETLKQSGYCGPYLIEMWSETAEDPAAEVAKARDWVKARMAKAGMVEAA | soluble
STPTSQALYSDFSPPEGLEELLSAPPPDLVAQRHHGWNPKDCSENIDVKEGGLCFERRPVAQSTDGVRGKRGYSRGLHAWEISWPLEQRGTHAVVGVATALAPLQADHYAALLGSNSESWGWDIGRGKLYHQSKGLEAPQYPAGPQGEQLVVPERLLVVLDMEEGTLGYSIGGTYLGPAFRGLKGRTLYPSVSAVWGQCQVRIRYMGERRVEE | soluble
SVACLSCRKRHIKCPGGNPCQKCVTSNAICEYLEPSKKIVVSTKYLQQLQKDLNDKTEENNRLKALLLER | soluble
MKPLRSPWVMRALARFFSGYIALTYKTLRWTREGQAIADRVQAEALASGGGAILALWHSRVPVGPATWPQGPDKPEIRVLVSQSRDGEFIARVIARLGLPSIRGSSLKKTDTAKNKGGEQAFRDMVKWVKDGGAMAITPDGPRGPVEVMQKGAVALARVSGAPVLFVGVAVNPCIRLKTWDRTIIPLPFAKAAMVWDGPVHAGRDDDPDAVVEAWGARLSAVSRRAEAIVGETPPKDLEHHHHHH | not soluble
RMNLKEAAKKAENKSDFVNHVLPHYCNIMFGLIETRSAFLHEKSNFFEGFLTKEGLINEDRFAPMFGIYGMAEAVDILMEKEGIEAKYGHDEIANQLGHAISKQLSEIVDATDVKYGYHGKALLHAQGGISLDIDVTPGVRIPYGTEPDPVSYVQATVGHHQYYTSGISDILTIDETVKSNPEAMFNLAKGALQLGYREFTANVASNDLVRITGYMVKLSDIAKYDAEGSRTNTTFL | not soluble
MKFAVIGGTGLIGSQVVKNLNAAGHEAVPHSQSTGIDVISGQGLDQAVAGADVIVNLTNSPTFDEASPAFFQTSMDNLLAAGRKAGVRHFVILSIVGVDQVPELDYYRAKALQEKILAAGPIPYSIVRATQFMEFIDAVLSWTADGDTVRLPATPIQPIAAKDVADAVAEVAAGAPLGGIRNVAGPEIFSLDELGRITLSHKSDGRTVVTDPTAGMFGAVKGDVLTDKDAHLAPTHYADWLS | not soluble
MVNPEEQPISILFLGIDDNDGRRKKGQDAEHSRSDAMILTTFNQSKHQIRMLSIPRDTISYIPKVGYYDKITHAHAYGGPIAAMDSVEATMNVPVDYYVRVNMKAFVEAVNELGGIYYDVPYDLNEPNTDDTGKIKIKKGYQKLNGDEALAVARTRHHDSDLKRGQRQMELIKILFQKAQEVDSIDKLDNVIQIVGKNAKHNLTNSEIKALAKMYLTNDVEIKTAQLKGKDDMLNGIYYYHPSVESIQKYANLLRKDLELSPINDKNDFLDQRVINHYGSLIPLTPLDSSLLRKEQNDTTDKDKTSNENNDSTNNSDSSNQQQPATDQNLNQNQGGTQQAPQASNNQNGVVNLEHHHHHH | soluble
MSRPTLQVDLLVESFNYKAWSDRRTLDAIARIDAEAFPASLAFALQQLNHMAIVEELFRARLLGEPAPHQQTNSEVVPGYDVLRRRLEDSAAWFAGYVAELPLERRGEWLRFRFADGRDGGMTRQEILFHIVNHGTYHRGAIGHALDLAGAPRPADTYTLYIHSAQPERRE | not soluble
MGSDKIHHHHHHMTAIRVTITQVKGSAPRDTGTSMLVFADRIEGTIGGGALEWEAMRLARDMLRNGTSVTTHTFPLGPALGQCCGGVVKLELQAATQWKGVEKTPIWIWGAGHVGRAIIHTLSPFSALDLSWIDTAADRFPADIPNDTHRLIATDPPRLMPHAPPNAHHLIATYSHDIDLALCHAALTHGFASAGVIGSATKWARFRKRLGQMGHSGAQISRIMCPIGDPGLGKHPQAIAIGVAARLLGEQMLQESAQHLKDVDHGGT | not soluble
MVTLTTNTEGATIYYTLDGSNPTNKSVRYNGRIVVNENSVIKAIAEKEGLTSSAISTFSFVIVNNEPVRIHDIQGKSHLSPYNGKKVYNVEGVVTALDKNGFYIEDNQPDNDPATSEGMYVYKKDANVAVGDLIQVDGVVEEYVGPGYAERFDTDLTTTEIKASRVVVIAKDQVLPAPIVLGENGVKIPDQIIDNDAFGLFDPNEDAIDFYESVEGMRVTMPTPKIIAPQKNGNLYVTVKNGGNKVVTKYGTPVLDENQLNPERLSVKVPRDYVAKVGDTFTGDITGVVGYDYGSFRIAPITELPSVVDGGFKQIGANIQPRLDKLEHHHHHH | soluble
